We go through 63 sequences from the Immune Epitope Database (IEDB).

One may read the Kd as the equilibrium constant for the complex coming apart. High values mean a looser complex, low ones a tighter complex.

The target of one assay is HLA-B*07:02. Put plainly: IEDB peptide-MHC binding, purified MHC/competitive/fluorescence; filed as Kd, often an IC50 or EC50 that approximates it; ≥ and ≤ were set here for values at or beyond the usual limits of such assays. Particulars: source organism: Francisella tularensis subsp. tularensis SCHU S4.
With APAWFQASA, the Kd was at least 5000 nM.
Sequence FPNINFSPEV had a Kd of at least 5000 nM.
On to FPQANLTGGI, for which the Kd came out at 2140 nM. That is a single-digit micromolar value.

The next assay concerns the target HLA-B*07:02. Put plainly: IEDB peptide-MHC binding, purified MHC/direct/fluorescence; filed as Kd, often an IC50 or EC50 that approximates it; ≥ and ≤ were set here for values at or beyond the usual limits of such assays. Particulars: source organism: Francisella tularensis.
Turning to APFANTYSAL, the Kd turned out to be 22 nM.

The same assay, now with this note: source organism: Francisella tularensis subsp. tularensis SCHU S4.
As to APAFVVIADL, the Kd was determined as 114 nM.
Same read-out and setting: the result for APYPNVVEM reads 127 nM; that for FPATGQNIYM, 588 nM.
On the same count and under the same terms, the result for FPICSTYKFL reads 226 nM.
Still for that read-out and setting: the result for FPICSVFKFL reads 251 nM; that for FPINLNSSQL, 62 nM; that for FPKAFINIV, 151 nM.
For the sequence IPMTLTASPL, the Kd stood at 4 nM.
IPRTMLPLSL came in with a Kd of 3 nM.
On the same count and under the same terms, the value for LPRYNIATSV was 3 nM; that for MPVSRQISRM was 665 nM.
Regarding SPMEHSKRI, the Kd was 62 nM.
Still for that read-out and setting: the result for SPMGPLAVSF reads 18 nM; that for SPQANNLYL, 74 nM.
Same read-out and setting: the result for TPNGNIPTL reads 46 nM; that for VPRKPLLSYI, 38 nM.

The next assay concerns the target HLA-A*24:02. The assay is described as above. Particulars: source organism: Francisella tularensis subsp. tularensis SCHU S4.
Sequence AYVKNGYFEI came in with a Kd of 76 nM. That is a double-digit nanomolar value.
Take IFWQFHQLL: the Kd is 10 nM.
For the sequence IYNNYDVLF, the Kd was 23 nM.
On the same count and under the same terms, the value for IYSDKGLLF was 4 nM; that for KYWNNHRQGI was 435 nM; that for LYQPLLDLL was 30 nM.
Still for that read-out and setting: the value for LYSENGHFSW was 18 nM.
For NYNNLDDKF, the Kd turned out to be 3 nM. This Kd lies about 6-fold lower than the previous one.
Same read-out and setting: the value for NYQKWTAPL was 5 nM.
As to NYVDSAQLAF, the Kd came out at 9 nM.
Still for that read-out and setting: the result for PYLKQGIEF reads 8 nM; that for PYLKSFLSF, 20 nM.
In the case of RYTDSEYFVI, the Kd is 15 nM.
On the same count and under the same terms, the value for SYDRWGIPI was 33 nM; that for SYSYLVYLI was 3 nM.
As to SYTFTQTFF, the Kd stood at 24 nM.
As for TYPNSQQQTL, the Kd came out at 180 nM.
Turning to TYTSTLHPRL, the Kd was 200 nM.
As for WYTNLDTDKF, the Kd turned out to be 255 nM.
For YYLDRGYLDF, the Kd came to 10 nM.

For the next assay, the target named is HLA-A*02:01. The assay is described as above. Particulars: source organism: Francisella tularensis.
Sequence QLVGRVFAGL had a Kd of 2 nM.

The same assay, now with this note: source organism: Francisella tularensis subsp. tularensis SCHU S4.
The sequence FLMPFMHYIV gave a dissociation constant Kd of at most 1 nM.
Same read-out and setting: the value for FLSNVGHYV was at most 1 nM.
Still for that read-out and setting: the value for FLSPNQVTNV was at most 1 nM.
Turning to GIDGNVTFTV, the Kd is at most 1 nM.
Turning to GLNLVVSSSV, the Kd came out at 20 nM.
On the same count and under the same terms, the value for GTDGFPFKL was 24 nM; that for ILDPKTGLV was 15 nM; that for ILLPWFVDL was at most 1 nM.
Same read-out and setting: the value for IMSSFEFQV was at most 1 nM; that for KIDSTSFSV was at most 1 nM; that for KLAKKVLSRV was 10 nM.
Same read-out and setting: the result for KLGGYVSFV reads at most 1 nM.
Sequence KLLGQINLV registered a dissociation constant Kd of at most 1 nM.
The same measure, in the same setting: the result for KLLPEGYWV reads at most 1 nM; that for KLWGLVDFV, at most 1 nM; that for LMWDNVGLV, at most 1 nM.
For NLDTSPFFV, the Kd was at most 1 nM.
Same read-out and setting: the result for QLWPEEIGV reads at most 1 nM; that for RLIGHISTL, at most 1 nM.
The same measure, in the same setting: the value for VLPGVVVPIV was 15 nM; that for WLGETFHGL was at most 1 nM; that for WLGNHGFEV was at most 1 nM.
